Measurements taken from article PMC3017119, “Structural Basis for the Recognition of Cellular mRNA Export Factor REF by Herpes Viral Proteins HSV-1 ICP27 and HVS ORF57” (PLoS Pathogens, 2011).
Residue numbers refer to the chain shown, from its start. Names may count otherwise.

B1: HVS ORF57^103–120 (peptide)
peptide: SCKTSWADRVREAAAQRR
notes: also called WT HVS-ORF57^103–120; source: synthetic peptide (Peptide Protein Research Ltd)
B2: REF^54–155 (recombinant, for NMR) (domain or fragment)
chain: not shown
notes: 15N- or 13C/15N-labelled or unlabelled, by experiment; also called Δ53N
B3: VZV ORF4^108–119 (peptide)
peptide: TGYARIERGHRR
notes: also called VZV-ORF4^108–119 peptide; source: synthetic peptide (Peptide Protein Research Ltd)
B4: ICP27^103–112 (peptide)
peptide: SVWSRLGARR
notes: HSV-1 ICP27, residues 103-112; the dash in the printed line is an alignment gap; also called WT ICP27^103–112 peptide; source: synthetic peptide (Peptide Protein Research Ltd)
B5: HVS ORF57^105–115 (peptide)
peptide: KTSWADRVREA
notes: also called WT HVS-ORF57^105–115; WT-ORF57^105–115; source: synthetic peptide (Peptide Protein Research Ltd)
B6: ICP27^103–138 (peptide)
chain: GPLGSVWSRLGARRPSCSPEQHGGKVARLQPPPTKAQPAR
notes: remainder of the PreScission protease cleavage site; HSV-1 ICP27, residues 103-138; also called WT-ICP27^103–138; ICP27^103–138 WT peptide; source: expressed as GST-fusion from pGEX-6P-1, cleaved by PreScission protease on GSH resin, purified (Sephacryl S-100 HR); not shown: GST, N-terminal, cleaved
B7: ICP27^103–138 S114E (peptide)
chain: B6 chain with S16E
notes: remainder of the PreScission protease cleavage site; HSV-1 ICP27, residues 103-138 with S114E (mimic of phosphoserine 114); source: expressed as GST-fusion from pGEX-6P-1, cleaved by PreScission protease on GSH resin, purified (Sephacryl S-100 HR); not shown: GST, N-terminal, cleaved
B8: HVS ORF57^8–120 (recombinant, for NMR) (domain or fragment)
chain: GISSDDDFDSSDSSSDEEESDTSPQIMKSDVTMASPPSTPEPSPDVSASTSNLKRERQRSPITWEHQSPLSRVYRSPSPMRFGKRPRISSNSTSRSCKTSWADRVREAAAQRR
B9: ICP27^1–138 (recombinant, for NMR) (domain or fragment)
chain: MATDIDMLIDLGLDLSDSDLDEDPPEPAESRRDDLESDSSGECSSSDEDMEDPHGEDGPEPILDAARPAVRPSRPEDPGVPSTQTPRPTERQGPNDPQPAPHSVWSRLGARRPSCSPEQHGGKVARLQPPPTKAQPAR
notes: HSV-1 ICP27, residues 1-138
B10: KSHV ORF57^100–110 (peptide)
peptide: NRYGKKIKFGT
notes: also called KSHV-ORF57^100–110 peptide; source: synthetic peptide (Peptide Protein Research Ltd)
B11: ICP27^103–110 (peptide)
peptide: SVWSRLGA
notes: HSV-1 ICP27, residues 103-110; the dash in the printed line is an alignment gap; also called WT ICP27^103–110 peptide; source: synthetic peptide (Peptide Protein Research Ltd)

Experiments:
Settings in all cases: both partners purified
[1] = target: B2; experiment: NMR titration; […]; 30°C; […], pH 6.2
[2] = target: B9; experiment: NMR titration
HVS ORF57^103–120 W108A = target: T1, HVS ORF57^103–120 W108A (Herpesvirus Saimiri, W108A (stands in the printed letters)); experiment: NMR titration; […]; 30°C; […], pH 6.2
T1 construct: source: synthetic peptide (Peptide Protein Research Ltd)

HVS ORF57^103–120 V112A = target: T2, HVS ORF57^103–120 V112A (Herpesvirus Saimiri, V112A (stands in the printed letters)); experiment: NMR titration; […]; 30°C; […], pH 6.2
T2 construct: source: synthetic peptide (Peptide Protein Research Ltd)

ICP27^103–112 L108A = target: T3, ICP27^103–112 L108A (Herpes simplex virus 1, L108A (stands in the printed letters)); experiment: NMR titration; […]; 30°C; […], pH 6.2
T3 construct: source: synthetic peptide (Peptide Protein Research Ltd)

HVS ORF57^103–120 R111A = target: T4, HVS ORF57^103–120 R111A (Herpesvirus Saimiri, R111A (stands in the printed letters)); experiment: NMR titration; […]; 30°C; […], pH 6.2
T4 construct: source: synthetic peptide (Peptide Protein Research Ltd)

ICP27^103–112 W105A = target: T5, ICP27^103–112 W105A (Herpes simplex virus 1, W105A (stands in the printed letters)); experiment: NMR titration; […]; 30°C; […], pH 6.2
T5 construct: also called mutant peptide W105A; source: synthetic peptide (Peptide Protein Research Ltd)

ICP27^103–112 R107A = target: T6, ICP27^103–112 R107A (Herpes simplex virus 1, R107A (stands in the printed letters)); experiment: NMR titration; […]; 30°C; […], pH 6.2
T6 construct: source: synthetic peptide (Peptide Protein Research Ltd)

[3] = target: B8; experiment: NMR titration; […]; 30°C; […], pH 6.2
[4] = target: REF^1–155 (recombinant, for NMR) (murine, UniProt Q9JJW6 1-155); experiment: NMR titration

Binder B1 has a Kd [1] of 45 ± 15 µM.

In the case of B2, the binding result [2] is reported as “binds”, the Kd (HVS ORF57^103–120 W108A) is reported as over 7500 µM and the Kd (HVS ORF57^103–120 V112A) is reported as 156 ± 32 µM. For the same binder, the Kd (ICP27^103–112 L108A) was over 5000 µM, the Kd (HVS ORF57^103–120 R111A) was 254 ± 50 µM and the Kd (ICP27^103–112 W105A) was 550 ± 210 µM. It also gave a Kd (ICP27^103–112 R107A) of over 10000 µM and a Kd [3] of 78 ± 12 µM.

Binder B3 has a Kd [1] of over 1000 µM.

B4 showed a Kd [1] of 99 ± 30 µM.

Work on B5 yielded a Kd [1] of over 1000 µM.

Work on B6 yielded a Kd [1] of 28 ± 8.7 µM.

For B7, the Kd [1] was 17 ± 7.9 µM.

B8: binds [4].

B9: binds [4].

With B10 the Kd [1] was over 100000 µM.

For B11, the Kd [1] was 25 ± 7 µM.
